According to paper PMC10764958:

Biological target: SARS2-NP WT (bacterial) (SARS-CoV-2, UniProt P0DTC9 1-419)
Assay: MST; MST: PBS with 0.05% Tween, room temperature; […]
Details: protein: recombinant; tags: 2xStrep (C-term); chain copies: 2

B1: Cy5-RNA (SARS-CoV-2 RNA) (ssRNA)
RNA: CACUCGCUAUGUCGAUAACAACUUCUGUGGCCCUGAUGGCUACCCUCUUGAGUGCAUUAAAGA
B1: binds.
